Source: paper PMC12754631, “Cis‐2‐decenoic acid modulates Pseudomonas aeruginosa virulence through a noncanonical transcriptional regulator” (mLife, 2025)

What was measured:
[1] = molecular target: T1, FadD1 (Pseudomonas aeruginosa, UniProt Q9HYU4); assay: microscale thermophoresis; format: binding
T1 construct: expressed in E. coli BL21, Ni-NTA, His-tag removed by TEV protease; labelled for MST

[2] = molecular target: T2, FadD1 (Pseudomonas aeruginosa PAO1) (UniProt Q9HYU4); assay: EMSA
T2 sequence: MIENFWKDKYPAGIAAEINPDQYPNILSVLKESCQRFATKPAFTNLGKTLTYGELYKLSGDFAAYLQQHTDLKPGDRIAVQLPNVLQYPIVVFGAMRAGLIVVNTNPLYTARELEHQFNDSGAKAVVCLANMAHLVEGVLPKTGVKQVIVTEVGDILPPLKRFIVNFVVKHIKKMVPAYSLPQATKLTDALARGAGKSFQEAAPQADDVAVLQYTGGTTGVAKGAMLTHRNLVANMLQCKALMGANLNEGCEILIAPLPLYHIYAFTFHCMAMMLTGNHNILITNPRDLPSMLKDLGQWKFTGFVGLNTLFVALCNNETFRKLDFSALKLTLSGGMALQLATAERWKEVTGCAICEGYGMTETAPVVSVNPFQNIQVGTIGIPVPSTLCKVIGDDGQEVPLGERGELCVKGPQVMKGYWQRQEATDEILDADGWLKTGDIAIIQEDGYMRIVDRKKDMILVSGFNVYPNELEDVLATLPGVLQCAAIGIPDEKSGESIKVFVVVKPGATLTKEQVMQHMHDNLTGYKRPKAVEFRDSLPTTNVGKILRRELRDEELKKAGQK

Molecule	Kd [1] [nM]	binding [2]
CCCCCCCCC/C=C\C(=O)O [BDSF]	1650 ± 210	–
CCCCCCC/C=C\C(=O)O [cis-DA]	1060 ± 140	–
ATCTCATGCAGATGCCGGAGTTCTCCCTGAACTTCGCCTTGTTGCATACATGGCAAGCGCGCCATGGCGGAGCGCGACGGCTGAATATCTAGCACGAAAGTGAAAATAGAAAAGAACGAGATTTCATAAGGGCGGGCGCCGTTTTTAACAGGTTGTTCATGCGTCGCCGCTAGTTTGTTGTCTTTCACAGAACTGTTCGATGAACGGACTTGTTGCATTAGAACAATAAGTCCCGATGGAACTTCGGGGGACCGTGTGAAGCGTTCGCTGTTCAATTGTGCGCAC (double strand) [PA0692 promoter]	–	binds
GTCGGCGTTTCATGGAATTGTCACAACCGCACAGTATCGCTTGCGGTAAAGCGGCCCAGGTGGTCGAACGTTGTCATAGGGAGGGGGATGCTCGATGGCTGAAGGCTGCGTCCTGAACGGTGCTGGCATAACAGATAGGGTTGCCATGATTTTGCCGTATCGGCAAGGCTGCGCGCTTGACAGCGTCATACCCCGGGCCAATTCTGCTGTGATGCATTTTATCGATCAGGGCTTACTGCAATGAGGAATGACGGAGGCTTTTTGCTGTGG (double strand) [rhlR promoter]	–	no binding
GTGCGCACAATTGAACAGCGAACGCTTCACACGGTCCCCCGAAGTTCCATCGGGACTTATTGTTCTAATGCAACAAGTCCGTTCATCGAACAGTTCTGTGAAAGACAACAAACTAGCGGCGACGCATGAACAACCTGTTAAAAACGGCGCTATGAAATCTCGTTCTTTTCTATTTTCACTTTCGTGCTAGATATTCAGCCGTCGCGCTCCGCCATGGCGCGCTTGCCATGTATGCAACAAGGCGAAGTTCAGGGAGAACTCCGGCATCTGCATGAGAT (double strand) [PA0692 promoter, AGGGCGG deleted]	–	no binding
